Source: the RNAGym collection of RNA variant scans (doi:10.7554/elife.80360)

B1: Twister Ribozyme (parent)
chain: AACACUGCCAAUGCCGGUCCCAAGCCCGGAUAAAAGUGGAGGGGGCGG

Variants of: B1
Assay: self-cleavage, relative activity (ratio to wild type); higher = more cleavage; co-transcriptional

Variant	self-cleavage
C3G G7C	0.0501
C3G G7A	0.0769
C3A A33G	0.0867
C3A U12G	0.159
C3A U12A	0.0973
C3A G45U	0.152
C3A G45C	0.0823
C3A G13A	0.207
C3A G13U	0.127
C3G U18G	0.0365
C3G U18A	0.116
C3U C25U	0.238
C3A G28A	0.183
C3A G28U	0.144
C3A U18C	0.0738
C3A U18G	0.0709
C3A U18A	0.0528
C3A C9U	0.0898
C3U G7U	0.0522
A4C G16U	0.107
A4C G16C	0.0536
A4G G43A	0.165
A4G G43C	0.168
A4G G43U	0.233

Variant	self-cleavage
C3U A34C	0.155
A4G G44C	0.645
A4G G44U	0.968
C3A G41C	0.07
C3A A35C	0.315
C3A A35U	0.16
A4G G47A	0.91
A4G G47U	0.902
C3A G42U	0.0908
C3U C26U	0.138
C3U C26G	0.0758
C3U A40U	0.0995
C3U A40G	0.0544
C3A G43A	0.0599
C3A U37G	0.17
C3G C21U	0.0445
C3G C21G	0.0504
A4C G44C	0.0939
A4C G44U	0.134
C3U A33G	0.361
A4G A40U	0.163
A4G A40G	0.17
C3A C21A	0.0913
C3G G24U	0.0918

Variant	self-cleavage
C3G G24A	0.0502
A4G U18A	0.364
A4C A23G	0.0448
A4G G16A	0.918
A4G G16U	0.839
A4G G16C	0.243
C3U G17A	0.174
A4G C20U	1.06
A4G C20A	0.14
C3A C5A	0.0993
C3A C5G	0.265
C3A C5U	0.159
A4G C27A	0.279
A4G C27U	0.74
A4C G7C	0.0903
A4C C20U	0.0732
A4C U12A	0.193
A4C U12G	0.332
C3U G44C	0.446
C3A G38C	0.297
C3U G29A	0.32
C3G G38U	0.607
C3G G38A	0.559
C3G G38C	0.449

Variant	self-cleavage
C3A G16U	0.141
A4G C19U	0.887
A4G C19A	0.0929
A4G C19G	0.166
A4G C5A	0.892
A4G C5U	0.855
A4G C5G	0.274
C3A C20A	0.0829
C3A C20G	0.0637
C3A A34G	0.1
C3A A34U	0.252
A4C G47A	0.178
A4C G47C	0.0906
C3A G24C	0.0654
C3U C19U	0.374
C3U C19A	0.0875
C3U U31A	0.249
C3A G7C	0.0682
A4C C5A	0.0937
A4G C15A	0.631
C3A C26U	0.132
A4G G24U	0.12
C3G C8A	0.174
C3A G17U	0.0649

Variant	self-cleavage
C3A G17C	0.0654
A4G A35C	0.865
A4G A35G	0.525
A4G A35U	0.844
C3A A40C	0.0582
C3G U37A	0.421
C3G U37C	0.18
C3G U37G	0.478
A4G C25G	0.189
A4G C25A	0.054
A4G A23G	0.384
C3U G43U	0.0863
C3U G43C	0.0646
C3U G43A	0.0963
A4C C15U	0.271
A4C C15A	0.12
A4C G48U	0.232
C3U A23U	0.194
C3U A23G	0.101
A4G G38A	0.867
C3G C20A	0.0892
C3G G17A	0.213
C3U G38C	0.288
C3U G38A	0.396

Variant	self-cleavage
A4C C46A	0.063
A4C C46G	0.142
C3G C27A	0.0737
C3U C5G	0.105
C3U C5A	0.219
C3U C5U	0.315
C3A G29C	0.184
C3U C27G	0.0437
C3U C27A	0.159
C3U C27U	0.231
C3G C46G	0.568
C3G C46U	0.583
C3G C46A	0.624
A4C G17A	0.0548
A4C G17U	0.0801
A4C G36U	0.0758
A4C A35C	0.301
A4C A35U	0.272
C3A C14G	0.0567
A4G G17A	0.473
A4G G17U	0.0875
C3A C25A	0.0581
C3A C25G	0.12
A4C G45C	0.16

Variant	self-cleavage
A4C G45A	0.145
A4C G45U	0.0976
A4G A22C	1.01
A4G A22G	0.0987
A4G A22U	0.69
C3U A4C	0.106
C3U A4U	0.12
A4G U12A	1.17
A4G U12G	0.673
C3G A4C	0.114
C3G A4U	0.13
C3G A4G	0.462
A4C A22C	0.0993
A4C A22U	0.0826
C3G C14G	0.0805
C3G C14U	0.47
C3G C14A	0.418
C3G C9G	0.139
C3G C9A	0.0934
C3A C27U	0.183
C3A C27A	0.148
A4C G13C	0.0474
A4C G13A	0.0606
